Laboratory results reported in patent publication US20190324031A1 (MARS, published 2019).
Numbered stars: 1 amine (or outer) side, 2 acyl side, 3 side chain; on linkers, the order of the positions; unused ones are H or OH. Square brackets hold non-standard residues; d marks the D form. Ends that are not written are not given here. γGlu = O=C(O)[C@H](CCC(=O)[*:2])N[*:1]

Molecular target: T1, feline calcium-sensing receptor (fCaSR) from Felis catus, full length, expressed in HEK T-Rex/natClytin cells … (Felis catus)
T1 chain: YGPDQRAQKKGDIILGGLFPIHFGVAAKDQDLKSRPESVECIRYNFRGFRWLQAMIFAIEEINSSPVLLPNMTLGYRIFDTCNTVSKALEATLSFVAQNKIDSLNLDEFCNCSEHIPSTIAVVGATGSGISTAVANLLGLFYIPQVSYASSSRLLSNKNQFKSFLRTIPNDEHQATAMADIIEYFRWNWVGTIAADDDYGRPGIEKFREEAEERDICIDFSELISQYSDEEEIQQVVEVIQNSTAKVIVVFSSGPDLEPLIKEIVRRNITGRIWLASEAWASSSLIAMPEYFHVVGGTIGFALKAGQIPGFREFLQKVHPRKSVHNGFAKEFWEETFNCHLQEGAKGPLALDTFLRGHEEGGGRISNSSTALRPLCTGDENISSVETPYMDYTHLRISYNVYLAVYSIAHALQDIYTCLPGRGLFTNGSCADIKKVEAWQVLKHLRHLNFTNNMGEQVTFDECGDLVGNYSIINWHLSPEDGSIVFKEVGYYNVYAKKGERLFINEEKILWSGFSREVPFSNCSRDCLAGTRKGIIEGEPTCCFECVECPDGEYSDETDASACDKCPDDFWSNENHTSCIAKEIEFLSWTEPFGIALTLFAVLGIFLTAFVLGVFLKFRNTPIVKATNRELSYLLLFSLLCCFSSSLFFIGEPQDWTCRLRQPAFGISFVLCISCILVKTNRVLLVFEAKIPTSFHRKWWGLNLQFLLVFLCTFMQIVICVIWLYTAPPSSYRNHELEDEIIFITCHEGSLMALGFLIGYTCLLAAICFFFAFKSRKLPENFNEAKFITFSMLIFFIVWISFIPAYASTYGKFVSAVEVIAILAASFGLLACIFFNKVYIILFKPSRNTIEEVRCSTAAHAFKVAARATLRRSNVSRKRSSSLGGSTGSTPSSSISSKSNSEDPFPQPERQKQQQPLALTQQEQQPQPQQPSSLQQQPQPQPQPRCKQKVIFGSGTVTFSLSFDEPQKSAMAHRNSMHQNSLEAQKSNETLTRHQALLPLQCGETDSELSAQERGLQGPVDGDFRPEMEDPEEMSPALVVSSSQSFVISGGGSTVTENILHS
Assay: cell-based or functional assay

[γGlu]-Cys-Gly (also: γ-glutamyl peptide bond between Glu side chain and Cys) [L-Glutathione (γ-Glu-Cys-Gly)]
Agonist EC50: 8.2 mM
